Measurements reported in PMC4057019 (Matrix biology : journal of the International Society for …, 2014).

Assays:
[1] = biological target: recombinant human TLR-2 (Met1 to Leu590) (human, UniProt O60603 21-590, labeled with fluorophore NT-647); test: MST
[2] = biological target: recombinant human TLR-4 (Glu24 to Lys631) (human, UniProt O00206 24-631, labeled with fluorophore NT-647); test: MST
Sequence of recombinant human TLR-4 (Glu24 to Lys631) (O00206 24-631): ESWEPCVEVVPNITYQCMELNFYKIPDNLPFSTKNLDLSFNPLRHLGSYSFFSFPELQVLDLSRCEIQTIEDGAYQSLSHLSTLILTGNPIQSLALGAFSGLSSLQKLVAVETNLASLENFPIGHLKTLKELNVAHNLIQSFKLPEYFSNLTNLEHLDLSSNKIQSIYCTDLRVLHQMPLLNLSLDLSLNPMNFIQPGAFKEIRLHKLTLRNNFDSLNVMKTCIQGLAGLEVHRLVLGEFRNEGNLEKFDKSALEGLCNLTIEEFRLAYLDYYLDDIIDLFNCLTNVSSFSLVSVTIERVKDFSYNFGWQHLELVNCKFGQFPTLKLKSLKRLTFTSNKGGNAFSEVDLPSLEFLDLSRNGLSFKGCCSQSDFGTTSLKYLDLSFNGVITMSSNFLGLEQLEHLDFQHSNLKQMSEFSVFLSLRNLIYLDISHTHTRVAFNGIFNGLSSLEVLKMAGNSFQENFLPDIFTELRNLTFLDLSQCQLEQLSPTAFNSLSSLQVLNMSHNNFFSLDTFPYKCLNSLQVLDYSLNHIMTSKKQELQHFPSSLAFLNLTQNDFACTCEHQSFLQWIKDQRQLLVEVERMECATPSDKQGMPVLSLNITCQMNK

Sequence of recombinant human TLR-2 (Met1 to Leu590) (O60603 21-590): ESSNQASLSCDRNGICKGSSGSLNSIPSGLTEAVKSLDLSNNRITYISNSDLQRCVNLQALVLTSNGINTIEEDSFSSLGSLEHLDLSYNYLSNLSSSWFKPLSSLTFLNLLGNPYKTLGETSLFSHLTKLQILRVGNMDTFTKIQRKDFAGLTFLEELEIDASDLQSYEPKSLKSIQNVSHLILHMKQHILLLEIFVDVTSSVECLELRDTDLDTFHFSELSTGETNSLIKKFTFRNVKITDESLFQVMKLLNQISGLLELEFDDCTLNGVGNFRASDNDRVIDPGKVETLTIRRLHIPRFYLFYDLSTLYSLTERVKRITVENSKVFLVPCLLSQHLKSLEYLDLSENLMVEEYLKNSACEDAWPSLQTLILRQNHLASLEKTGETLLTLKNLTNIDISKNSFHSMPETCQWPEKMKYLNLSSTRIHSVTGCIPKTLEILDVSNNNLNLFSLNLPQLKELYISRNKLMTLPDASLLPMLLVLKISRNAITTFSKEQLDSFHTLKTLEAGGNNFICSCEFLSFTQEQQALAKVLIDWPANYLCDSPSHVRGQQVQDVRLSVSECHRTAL

B1: human biglycan (soluble biglycan proteoglycan) (natural protein, UniProt P21810 38-368, looked up)
chain: DEEASGADTSGVLDPDSVTPTYSAMCPFGCHCHLRVVQCSDLGLKSVPKEISPDTTLLDLQNNDISELRKDDFKGLQHLYALVLVNNKISKIHEKAFSPLRKLQKLYISKNHLVEIPPNLPSSLVELRIHDNRIRKVPKGVFSGLRNMNCIEMGGNPLENSGFEPGAFDGLKLNYLRISEAKLTGIPKDLPETLNELHLDHNKIQAIELEDLLRYSKLYRLGLGHNQIRMIENGSLSFLPTLRELHLDNNKLARVPSGLPDLKLLQVVYLHSNNITKVGVNDFCPMGFGVKRAYYNGISLFNNPVPYWEVQPATFRCVTDRLAIQFGNYKK
modifications: two chondroitin/dermatan sulfate chains
Kd [1]: 31 nM
Kd [2]: 28 nM
